Assay [1] has as its target T1, IL-9-His recombinant protein (UniProt P15248 19-144).
T1 construct: range 19-144; used as coating antigen in the ELISAs; also called IL9 (19-144)-His; not shown: His tag, C-terminal by the vector name
Kind of assay: ELISA on coated IL-9-His, OD450; unit taken from the x axis, the table prints none.

The target of assay [2] is T2, biotin-conjugated IL-9-Fc (Biotin-IL-9-Fc) (UniProt P15248 19-144, biotin-conjugated (sites not given)).
T2 construct: range 19-144; also called Fc-IL-9 recombinant protein; Fc-IL-9; not shown: Fc tag (Fc2 in the vector name pLVX-Fc2-IL9 (19-144)-Puro)
Nature of the assay: flow cytometry blocking assay (IL-9-IL-9R blocking determination): serially diluted antibody against the binding of Biotin-IL-9-Fc to 293-IL-9R cells (IL-9R), MFI; unit taken from the x axis, the table prints none.

Assay [3] addresses T1, IL-9-His recombinant protein. Nature of the assay: ELISA on IL-9-His, 293F culture supernatant, antibody concentration 1 µg/mL.
Method: (§1) ELISA was conducted according to a standard protocol to determine the affinity of a purified antibody for the IL-9-His recombinant protein. In short, the IL-9-His recombinant protein was diluted with sterile PBS and added at 100 μL/well to a 96-well plate. The plate was incubated at 4° C. overnight and then blocked with a blocking buffer. 100 μL of a purified anti-IL-9 antibody serially diluted was added to the plate, and the plate was incubated for 1 h at room temperature. PBS was added to a control well. The plate was washed with PBST 3 times. Then 100 μL of horseradish peroxidase (HRP)-labeled anti-mouse IgG H&L (BIODRAGON, CAT #BF03001) was added, and the plate was incubated for 1 h at room temperature. The plate was washed with PBST 3 times. Then a chromogenic reaction was conducted with a 3,3′,5,5′-tetramethylbenzidine (TMB) chromogenic solution at room temperature. An OD value in each well was read by a microplate reader. Data was processed with PRISM GraphPad, and curves were plotted. The EC₅₀ value for each candidate antibody was calculated.
Assay [4] has the same target. Kind of assay: ELISA on IL-9-His, 293F culture supernatant, antibody concentration 2 µg/mL.
Method: as §1
Assay [5] shares this target. Kind of assay: BLI (ForteBio), antibody on Protein A sensor, antigen 7.81-125 nM in solution.
From the text: The affinity of a humanized antibody was detected by ForteBio (BLI). […] An affinity detection procedure was as follows: equilibration for 60 s, binding for 180 s, and dissociation for 180 s.
Assay [6] shares this target. Kind of assay: ELISA on IL-9-His, 293F culture supernatant, antibody concentration 1 µg/mL (second well). (An ELISA detects its analyte on a solid surface through an enzyme-linked reagent.)
Method: as §1
Assay [7] has the same target. Kind of assay: ELISA on IL-9-His, 293F culture supernatant, antibody concentration 2 µg/mL (second well).
Method: as §1
The target in assay [8] is T2, biotin-conjugated IL-9-Fc …. Nature of the assay: flow cytometry blocking assay (IL9-IL9R blocking determination): serially diluted antibody against the binding of Biotin-IL-9-Fc to 293-IL-9R cells (IL-9R), MFI; unit taken from the x axis, the table prints none. A general note: Flow cytometry measures light scatter and fluorescence of single cells or particles in a stream.

Assay [9] has the same target. Kind of assay: flow cytometry blocking assay (IL-9-IL-9R blocking determination): serially diluted chimeric antibody against the binding of Biotin-IL-9-Fc to 293-IL-9R cells (IL-9R), MFI; unit taken from the x axis, the table prints none.
Method: The plate was washed with PBS once. […] Washing was conducted with PBS, and then resuspension was conducted with PBS. Flow cytometry was conducted.

Here are results for 5 molecules from patent US20250122278A1, “ANTI-INTERLEUKIN-9 ANTIBODY AND USE THEREOF” (GUANGDONG KEGUANDA PHARMACEUTICAL TECHNOLOGY CO., LTD., priority 2022, published 2025).

The term EC50 denotes the concentration giving half of the maximal effect. For orientation: Kd means the equilibrium constant for the complex coming apart. The koff is the first-order rate constant of dissociation. One may read the kon as the rate constant with which the complex forms.

T2 sequence (P15248 19-144 limits assumed, form in doubt): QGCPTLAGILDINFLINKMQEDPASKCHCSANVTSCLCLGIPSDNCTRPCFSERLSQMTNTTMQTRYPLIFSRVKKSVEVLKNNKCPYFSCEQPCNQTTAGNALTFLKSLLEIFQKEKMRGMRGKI
T1 sequence (P15248 19-144 limits assumed, form in doubt): as above

B1: 7F3com (antibody, V domains shown)
VH: QVQLVQSGAEVKKPGSSVKVSCKASGGTFSYYWIEWVRQAPGQGLEWMGEILPGSGTTNPNEKFKGRVTITADESTSTAYMELSSLRSEDTAVYYCARADYYGSDYVKFDYWGQGTLVTVSS
VL: DIQMTQSPSSLSASVGDRVTITCKASQHVITHVTWYQQKPGKAPKLLIYGTSYSYSGVPSRFSGSGSGTDFTLTISSLQPEDFATYYCQQFYEYPLTFGGGTKVEIK
notes: also called IL-9 positive control antibody; IL-9 positive antibody
As for B1, the EC50 in assay [1] turned out to be 0.0459 µg/mL; in assay [2] it was 10.2 µg/mL.

B2: 38-D8-C7-G9 chimeric antibody (CA1) (antibody, V domains shown)
VH: EVQLKQSGAELMKPGASVKLSCKATGYTFTGYWIEWVKLRPGHGLEWIGEILPGSGSTNYNEEFKGKATFTADTSSNTAYMQLNSLTTEDSAIYYCARRTYYYGIPEDYWGQGTSVTVSS
VL: DIVMTQSQKFMSTSVGDRVSVTCKASQNVGTNVAWHQQKPGQSPKPLIYSASYRYSGVPDRFTGSGSGTDFTLTISNVQSEDLAEYFCQQYNSYPLTFGAGTKLELK
notes: also called CA1 antibody; human-mouse chimeric antibody CA1
For the molecule B2, the “ELISA OD450” value was 2.43 OD450 in assay [3], 2.48 OD450 in assay [4], 2.55 OD450 in assay [6] and 2.6 OD450 in assay [7]. Also, in assay [5], the dissociation constant (Kd) was 0.44 nM. The koff in assay [5] was found to be 0.000934 s⁻¹. In addition, in assay [5], the kon was 2.13e+06 M⁻¹ s⁻¹. The EC50 in assay [1] is 0.022 µg/mL; in assay [8], 2.07 µg/mL; in assay [9], 5.96 µg/mL.

B3: 29-B9-F5-B6 chimeric antibody (CA3) (antibody, V domains shown)
VH: EVQLQESGAELMKPGASVKISCKATGYTFSSYWIEWVKQRPGHGLEWIGQILPGSGSNNYNERFKGKATFTADTSSNTAYMQLSSLTSEDSAVYYCAREGNYGEAWFAYWGQGTLVTVSA
VL: DILLTQSPATLSVTPGDSVSLSCRASQSISNNLHWYQQKSHESPRLLIKYASQSMSGIPSRFSGSGSGTDFTLSINSVETEDFGMYFCQQSNSWPLTFGAGTKLELK
As for B3, the “ELISA OD450” value is 2.71 OD450 in assay [3], 2.56 OD450 in assay [4], 2.62 OD450 in assay [6] and 2.45 OD450 in assay [7]. Besides, the EC50 in assay [9] is 8.47 µg/mL.

B4: 22-F2-E9-C8 chimeric antibody (CA4) (antibody, V domains shown)
VH: EVQVVESGPGLVKPSQSLSLTCSVTGSSFTSGYYWNWIRQFPGNKLEWMGYIRYDGSNNYNPSLKNRISITRDTSKNQFFLKLNSVTSEDTATYYCASYGSSYDAMDYWGQGTSVTVSS
VL: DIQLTQPPASLSASVGETVTITCRASENIDSYLAWYQQKQGKSPQLLVYAATLLADGVPSRFSGSGSGTQYSLKINSLQSEDVARYYCQHYYSTPWTFGGGTKLELK
With B4, the “ELISA OD450” value in assay [3] is 2.63 OD450; in assay [4], 2.45 OD450; in assay [6], 2.59 OD450; in assay [7], 2.43 OD450. Further, in [9], the EC50 worked out at 2.96 µg/mL.

B5: 31-D6-B8-B8 chimeric antibody (CA2) (antibody, V domains shown)
VH: EVQLKESGPGLVKPSQSLSLTCSVTGYSSTSGYYWNWIRQFPGNKLEWMGYIRYDGSSNHNPSLKNRISITRDTSKNQFFLKLNSVTTEDTATYYCASYGITYDAMDYWGQGTSVTVSS
VL: DIQLTQPPASLSASVGETVTITCRASENIDSYLAWYQQKQGKSPQLLVYAATLLADGVPSRFSGSGSGTQYSLKINSLQSEDVARYYCQHYYSTPWTFGGGTKLELK
For B5, the “ELISA OD450” value in assay [3] was found to be 2.66 OD450; in assay [4] it was 2.49 OD450; in [6], 2.62 OD450; in assay [7] it was 2.46 OD450. Further, in [9], a half-maximal effect (EC50) was put at 15.8 µg/mL.
